Assay results: PMC1635730, “Mesothelin-MUC16 binding is a high affinity, N-glycan dependent interaction that facilitates peritoneal metastasis of ovarian tumors” (Molecular Cancer, 2006)
Where “and” joins values, the source holds several entries; their conditions need not be identical. Equal entries are not always repeated.

Biological target: T1, MUC16 expressed on the surface of the ovarian tumor cell line OVCAR-3 (human (endogenous in OVCAR-3), UniProt Q8WXI7 1-14507)
T1 construct: also called cell surface MUC16; MUC16 on OVCAR-3 cells; source: endogenous, on OVCAR-3 cells and the control subline #12
Assay: flow cytometry on cells; OVCAR-3 cells with increasing amounts of meso-Fc for 1 h; mean fluorescence, non-linear regression (GraphPad Prism); apparent Kd
Details: one partner purified

B1: recombinant mesothelin tagged with the Fc fragment of rabbit IgG (Fc fusion, human, UniProt Q13421 296-598, looked up)
chain: EVEKTACPSGKKAREIDESLIFYKKWELEACVDAALLATQMDRVNAIPFTYEQLDVLKHKLDELYPQGYPESVIQHLGYLFLKMSPEDIRKWNVTSLETLKALLEVNKGHEMSPQVATLIDRFVKGRGQLDKDTLDTLTAFYPGYLCSLSPEELSSVPPSSIWAVRPQDLDTCDPRQLDVLYPKARLAFQNMNGSEYFVKIQSFLGGAPTEDLKALSQQNVSMDLATFMKLRTDAVLPLTVAEVQKLLGPHVEGLKAEERHRPVRDWILRQRQDDLDTLGLGLQGGIPNGYLVLDLSMQEALS
notes: mesothelin, human, extracellular domain (the 40 kDa fragment of the 70 kDa precursor); GenBank AY743922; Modified pSecTag2 vector containing rabbit IgG Fc; Glycosylated (made in mammalian cells); also called meso-Fc; mesothelin-Fc; source: HEK 293T, transfected, harvested from the culture supernatant, purified (Hi-trap protein A column)
  Kd: 5 nM and 5 to 10 nM
